Data taken from US20230037682A1 (published 2023).
Like-named read-outs stand apart in the source and are kept apart here.

B1: CD3_13 (NOV292) (antibody, V domains shown)
VH: QVQLVESGGGVVQPGRSLRLSCAASGFTFSKNGMHWVRQAPGKGLEWVAMIYYDSSKMYYADTVKGRFTISRDNSKNTLYLQMNSLRAEDTAVYYCASFWWDLDFDHWGQGTMVTVSS
VL: DIVMTQTPLSSPVTLGQPASISCRSSQSLVRSDGTTYFNWYQQRPGQPPRLLIYRVSNRFSGVPDRFSGSGAGTDFTLKISRVEAEDVGVYYCLQSSHFPWTFGGGTKVEIKR
B2: CD3_12 (NOV123) (antibody, V domains shown)
VH: QVQLVQSGAEVKKPGASVKVSCKASGYTFTSYYIYWVRQAPGQRLEWMGYIYPGHDAIYYSENFKGRVTITADTSASTAYMELSSLRSEDTAVYYCVRPNTMMAPLAYWGQGTLVTVSS
VL: DVVMTQSPLSLPVTLGQPASISCRSSQSLIYSIGNTYLHWYQQRPGQSPRLLIYRVSNRFSGVPDRFSGSGSGTDFTLKISRVEAEDVGVYYCFQSTHLPYTFGQGTKLEIKR

Key:
CD3 peptide [1] = assay: SPR (Biacore); 25 °C
CD3 peptide [2] = assay: SPR (Biacore); 25 °C; remark: listed apart in the source

Binder	Kd (CD3 peptide [1])	Kd (CD3 peptide [2])
B1	4.59 nM	
B2		262 nM
